Molecular target: T1, INTP5 (biosimilar pegfilgrastim, N-terminally pegylated filgrastim produced by Intas) (human), P09919
T1 chain: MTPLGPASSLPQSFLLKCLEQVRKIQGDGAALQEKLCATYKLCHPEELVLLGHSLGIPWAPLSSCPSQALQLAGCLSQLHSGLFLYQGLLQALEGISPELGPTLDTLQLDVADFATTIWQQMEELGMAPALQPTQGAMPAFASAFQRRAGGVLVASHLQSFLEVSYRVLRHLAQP
Test: SEC-MALS; vortexed (stress aggregated) INTP5; TSKgel G3000 SWXL, phosphate buffer with 100 mM NaCl and 10% ethanol, 25°C; 36 μg loaded
Conditions: remark: other sources report otherwise

B1: INTP5 (biosimilar pegfilgrastim, N-terminally pegylated filgrastim produced by Intas), P09919-2 31-204 (ligand)
chain: T1 chain
modifications: here or on the partner: 20 kDa monomethoxypolyethylene glycol (mPEG) on the N-terminal amino group of Met1, secondary amine linkage; 20 kDa monomethoxypolyethylene glycol (mPEG) on the N-terminal amino group of Met1, secondary amine linkage
- stoichiometry N: 2

From publication PMC6415886
